Experiments:
[1] = pH optimum of amidase 2 in degrading OTA; assay type: biochemical; details: 30° C., 60 min; followed by pH 6 and 8; pH 5 and 9
Procedure: The reaction mixture contained 5 μl amidase 2 mixture (a mixture of the intracellular fractions of transformant 3, 4, 7-8, 10-11 and 13-15) with a protein concentration of 155 μg protein/ml), 0.1 ml 67 mM phosphate buffer (pH3, 4, 5, 6, 7, 8 and 9), 25 μl OTA (1 μg/ml). The reaction was performed at 30° C. for 60 min and stopped by the addition of 0.13 ml acetonitrile containing 0.2% HAC. An injection volume of 10 μl was used for RP-HPLC analysis of remaining OTA after filtering.
Five microliters of enzyme solution were combined with […] OTA 1 μg/mL diluted in different buffers: 50 mM sodium acetate buffer (pH 4, 4.5, 5 and 5.5); 50 mM MES-NaOH buffer (pH 6, 6.5 and 7); 50 mM Tris-HCl buffer (pH 7.5, 8 and 8.5).

[2] = heat stability of amidase 2 at 80° C.; assay type: biochemical; details: 5-30 min pre-incubation at 80° C., pH7.0
Procedure: The pre-incubation mixture in a 1.5 ml ependorpf tube contained 5 μl of the amidase 2 mixture (155 μg protein/ml), and 45 μl 67 mM phosphate buffer pH7.0. The samples were pre-incubated at 80° C. for 0, 5, 10, 15, 20, 25 and 30 min. After cooling to 15° C., 50 μl 67 mM phosphate buffer and 25 μl OTA (1 μg/ml) were added to start the reaction this was incubated at 30° C. for 60 min, the reaction was stopped by the addition of 130 μl acetonitrile containing 0.2% HAC. An injection volume of 10 μl was used for RP-HPLC analysis of remaining OTA after filtering.
The reaction mixture of 5 μl enzyme plus 45 μl 68 mM sodium phosphate (pH7.0) was incubated at 80° C. for 0-30 min before adding another 50 μl the phosphate buffer and 25 μl 1 μg/ml OTA, and incubated at 30° C. for 60 min. The reaction was stopped by adding 130 μl acetonitrile containing 0.2% acetic acid (v/v). The reaction mixture was filtered and injected (10 μl) for HPLC analysis. Ctrl was control where no amidase was added.

[3] = pH and temperature stability of amidase 2 at 70° C.; assay type: biochemical; details: between pH 6 and 9; pre-incubated 30 min; stability decreased with the decrease in pH
Procedure: The reaction mixture contained 5 μl amidase 2 mixture (155 μg protein/ml), 45 μl 67 mM phosphate buffer at either pH3, 4, 5, 6, 7, 8 or 9. The reaction mixes were incubated at 70° C. for 30 min, before 2 μl 0.5 mg/ml OTA in ethanol and 80 μl 0.2M Mops pH 7.0 were added and the samples incubated at 30° C. for 60 min. The reaction was stopped by adding 130 μl acetonitrile containing 0.2% HAC, filtered and analysed by RP-HPLC.
Further more the recombinant amidase 2 was quite stable at 70° C. between pH 6 and 9. The stability decreased with the decrease in pH (FIG. 13). Activity was assayed at pH 7.0 and 30° C. The pre-incubation mixture contained 5 μl amidase 2 mixture (155 μg protein/ml), 45 μl 67 mM phosphate buffer (pH3, 4, 5, 6, 7, 8 and 9). The samples were pre-incubated at 70° C. for 30 min. After cooling to 30° C., 2 μl 0.5 mg/ml OTA in ethanol and 80 μl 0.2M Mops-NaOH (pH 7.0) were added and the reaction incubated at 30° C. for 60 min. The reaction was stopped by adding 130 μl acetonitrile containing 0.2% HAC, filtered and injected on RP-HPLC with an injection of 5 μl to monitor the remaining OTA.

[4] = detoxification of OTA in corn flour by amidase 2 mat; assay type: biochemical; details: from 38 ppm, 30° C., 20 hr, pH7.0
Procedure: (§1) The reaction mixture in 1.5 ml eppendorf tubes (C1-3) comprised 60 mg corn flower, 200 μl Mops-NaOH (0.2 M pH7.0), 40 μl amidase 2 mixture (which was mixture of an equal volume of the broth of A. niger transformant having amdiase 2 gene 3, 4, 7, 8, 10, 11, 13, 14, and 15), 20 μl OTA (0.5 mg/ml). Total volume of the three components was 260 μl; final OTA was 38 μg/ml or 38 ppm (ppm, parts per million). Control: Tubes of Controls (C-4-6) were the same as C1-3 except that the amidase preparation (the broth) was replaced with water.
(§2) The reaction was performed at 30° C. with skaking for 20 hr before the addition of equal volume of acetonitrile 260 μl containing 0.2% acetic acid to stop the reaction and to extract the OTA. After centrifugation and filter, the filtrate was analyzed on HPLC.

[5] = sensitivity of OTA hydrolysis to CaCl2 and EDTA; assay type: biochemical
Procedure: One protease inhibitor cocktail (PIC) tablet (Roche Applied Science, Mannhein, Germany) was dissolved in 1.5 mL. milliQ water to obtain a 7× stock solution. For formamidase inhibition assay, instead of 100 μL milliQ water normally employed, 20 μL of 7×PIC stock solution and 80 μL of milliQ water were mixed with other components listed in formamidase activity assay section. For OTA degrading activity, 35 μL 7×PIC solution were mixed with 210 μL OTA 1 μg/mL and 5 μL enzyme solution. […] For controls, inhibitor solution is replaced either by milliQ water for formamidase activity assay or MES-NaOH pH7 buffer for OTA degrading activity.
Also it is known that the OTA degrading activity in the Amano™ lipase product is sensitive to EDTA.
[…] The reaction was performed at 37° C. for 30 min and stopped by adding 150 μl acetonitrile containing 0.2% acetic acid. OTA and its product OT-alpha (=ODα) were analyzed on RP-HPLC on C18 column with an injection of 5 μl. Positive control (PC) contained no additives other than the buffer the amidase and OTA. Blank contained only buffer and OTA.

[6] = assay type: biochemical; details: same concentration, optimum conditions, one hour
Procedure: The enzyme solution of Amidase 2 mat obtained after AEX was tested on ochratoxin B at the same concentration under optimum conditions for one hour. The degrading rate with ochratoxin B was 8% compared to OTA.

[7] = degradation of OTA in milk by amidase 2 mat; assay type: biochemical; details: light milk; 47 ppb at start; 0.22 μg protein; 40° C., 2.5 hr
Procedure: Light milk (1.5% fat, protein 3.4 g, carbohydrate 4.7 g Calcium 120 mg, Phosphorus 95 mg in 100 ml) from Aria Foods Amba (Aarhus, Denmark) 0.15 ml, 3 μl OTA (2.5 μg/ml), 7.5 μl purified amidase 2 mat (from the broth of A. niger harboring the amidase 2 gene) containing 0.22 μg protein were mixed and reacted at 40° C. for 2.5 hr. The OTA decreased from 47 ppb at start to undetectable level (<2 ppb) after 2.5 hr incubation. OTA analysis by HPLC was described in the materials and methods section above.

[8] = detoxification of OTA in corn-soy based feed by amidase 2 mat; assay type: biochemical; details: from 38 ppm, 20 hr incubation
Procedure: as §1, §2
The tests of amidase 2 mat with soy-corn based feed (whose composition is given in Table 3) contaminated with OTA was exactly as the test with corn flour, that is, tubes S1-3 (experimental) were with the broth while for tubes S 5-6 (controls) water replaced the broth. After 20 hr incubation, the OTA level was reduced from 38 ppm to 6.6 ppm, a reduction of 6 times or 82%.

[9] = OTA degradation as a function of amidase 2 mat concentration; assay type: biochemical
Procedure: The amidase used was purified from the broth of transformant 13 (438aa protein referred to as amidase 2 mat).
Ochratoxin A (OTA) degrading activity of amidase 2 mat purified from the fermentation broth of A. niger harboring the amidase 2 gene as a function of its concentration is shown in FIG. 15. It can be seen from FIG. 15 that the degradation of OTA was amidase 2 mat concentration dependent. One can also see that after 30 min with an amidase 2 mat concentration of 160 ng/ml the OTA decreased by 83%. From the linear region of FIG. 15 the calculated specific activity for amidase 2 mat was 900 nanomole OTA hydrolyzed per min per mg protein at pH7.0 and 40° C. at an OTA concentration of 1 μg/ml reaction mixture. The reaction for FIG. 15 was performed in 0.1 Mops-NaOH (pH 7.0) and 40° C. for 30 min before it was stopped by adding equal volume of acetonitrile containing 0.2% acetic acid and analyzed on RP-HPLC on a C18 column as described in the Material and Method section.

[10] = degradation of OTA in DDGS by amidase 2 sig; assay type: biochemical; details: DDGS slurry pH 6.7; 800 ppb at start; 3.1 μg protein; 37° C., 22 hr
Procedure: For DDGS, 1 g was suspended in 10 ml water, pH adjusted to 6.7 with NaOH. To 210 μl of this slurry was added 8 μl OTA (25 μg/ml) and 20 μl amidase 2 sig (3.1 μg protein), mixed and incubated at 37° C. for 22 hr. The OTA concentration decreased from 800 ppb at start to 5 ppb at the end. OTA analysis by HPLC was described in the materials and methods section above.

[11] = degradation of OTA in corn flour by amidase 2 sig; assay type: biochemical; details: 800 ppb at the start, 3.1 μg protein, 37° C., 22 hr
Procedure: For corn flour, 50 mg corn flour was added 210 μl water, 8 μl OTA (25 μg/ml) and 20 μl amidase 2 sig (3.1 μg protein), mixed and incubated at 37° C. for 22 hr. The OTA concentration decreased from 800 ppb at the start to 14 ppb at the end. OTA analysis by HPLC is described in the materials and methods section above.

B1: recombinant amidase 2: amidase 2 from transgenic A. niger intracellular preparation, a mixture of intracellular fractions of transformants 3, 4, 7-8, 10-11 and 13-15 (protein)
chain: MVRRIASATPMVQSPMSPLGTTYCVRPNPVSLNLQRRPLVIASTDEAKVTIIYAGLLIPGDGEPLRNAALVISDKIIAFVGSEADIPKKYLRSTQSTHRVPVLMPGLWDCHMHFGGDDDYYNDYTSGLATHPASSGARLARGCWEALQNGYTSYRDLAGYGCEVAKAINDGTIVGPNVYSSGAALSQTAGHGDIFALPAGEVLGSYGVMNPRPGYWGAGPLCIADGVEEVRRAVRLQIRRGAKVIKVMASGGVMSRDDNPNFAQFSPEELKVIVEEAARQNRIVSAHVHGKAGIMAAIKAGCKSLEHVSYADEEVWELMKEKGILYVATRSVIEIFLASNGEGLVKESWAKLQALADSHLKAYQGAIKAGVTIALGTDTAPGGPTALELQFAVERGGMTPLEAIKAATANAPLSVGPQAPLTGQLREGYEADVIALEENPLEDIKVFQEPKAVTHVWKGGKLFKGPGIGPWGEDARNPFL
modifications: Aspergillus niger
pH of highest enzyme activity [1]: 7.0 pH
activity remained after pre-incubation [2]: more than 80%
stability at 70° C. [3]: quite stable

B2: amidase 2 mat: secreted mature 438 amino acid amidase 2 from A. niger, MW about 47 kDa, N-terminal 42 amino acids cleaved (protein)
chain: STDEAKVTIIYAGLLIPGDGEPLRNAALVISDKIIAFVGSEADIPKKYLRSTQSTHRVPVLMPGLWDCHMHFGGDDDYYNDYTSGLATHPASSGARLARGCWEALQNGYTSYRDLAGYGCEVAKAINDGTIVGPNVYSSGAALSQTAGHGDIFALPAGEVLGSYGVMNPRPGYWGAGPLCIADGVEEVRRAVRLQIRRGAKVIKVMASGGVMSRDDNPNFAQFSPEELKVIVEEAARQNRIVSAHVHGKAGIMAAIKAGCKSLEHVSYADEEVWELMKEKGILYVATRSVIEIFLASNGEGLVKESWAKLQALADSHLKAYQGAIKAGVTIALGTDTAPGGPTALELQFAVERGGMTPLEAIKAATANAPLSVGPQAPLTGQLREGYEADVIALEENPLEDIKVFQEPKAVTHVWKGGKLFKGPGIGPWGEDARNPFL
modifications: Aspergillus niger
notes: secreted mature 438 amino acid amidase 2 from A. niger, MW about 47 kDa, N-terminal 42 amino acids cleaved
remaining OTA [4]: less than 2 ppb
inhibition of activity in the hydrolysis of OTA ([5]; 8 mM CaCl2, enzyme purified from the Amano™ lipase product): around 40%
inhibition of activity in the hydrolysis of OTA ([5]; 8 mM CaCl2, enzyme purified from the broth of transgenic A. niger): around 40%
inhibition by extra EDTA ([5]; data not shown): inhibited
degrading rate with ochratoxin B compared to OTA [6]: 8%
OTA after incubation [7]: < 2 ppb
OTA level after incubation [8]: 6.6 ppm
OTA decrease ([9]; 160 ng/ml amidase 2 mat, 30 min, pH 7.0, 40° C.): 83%
specific activity ([9]; pH7.0 and 40° C., OTA 1 μg/ml reaction mixture, calculated from linear region of FIG. 15): 900 nanomole OTA hydrolyzed per min per mg protein

B3: amidase 2 sig: full length 480 amino acid A. niger amidase 2 with N-terminal or signal sequence, MW about 51 kDa; intracellular fraction (protein)
chain: B1 chain
modifications: Aspergillus niger
notes: intracellular fraction
OTA concentration at the end [10]: 5 ppb
OTA concentration at the end [11]: 14 ppb
inhibition by CaCl2 ([5]; 8 mM CaCl2, intracellular fraction of transgenic A. niger): not appreciably inhibited
inhibition by CaCl2 ([5]; 20 mM CaCl2, 37° C., 30 min, pH7.0): no inhibition
inhibition by EDTA ([5]; 20 mM EDTA, 37° C., 30 min, pH7.0): no inhibition

From patent publication US9113649B2, “Food additive comprising an amidase for detoxifying ochratoxin” (DuPont Nutrition Biosciences ApS, priority 2010, dated 2015)
